Data published in PMC3524375.

What follows are substances tested against NADPH-cytochrome P450 reductase (UniProt P00388).
UniProt P00388, sequence (P00388 whole entry): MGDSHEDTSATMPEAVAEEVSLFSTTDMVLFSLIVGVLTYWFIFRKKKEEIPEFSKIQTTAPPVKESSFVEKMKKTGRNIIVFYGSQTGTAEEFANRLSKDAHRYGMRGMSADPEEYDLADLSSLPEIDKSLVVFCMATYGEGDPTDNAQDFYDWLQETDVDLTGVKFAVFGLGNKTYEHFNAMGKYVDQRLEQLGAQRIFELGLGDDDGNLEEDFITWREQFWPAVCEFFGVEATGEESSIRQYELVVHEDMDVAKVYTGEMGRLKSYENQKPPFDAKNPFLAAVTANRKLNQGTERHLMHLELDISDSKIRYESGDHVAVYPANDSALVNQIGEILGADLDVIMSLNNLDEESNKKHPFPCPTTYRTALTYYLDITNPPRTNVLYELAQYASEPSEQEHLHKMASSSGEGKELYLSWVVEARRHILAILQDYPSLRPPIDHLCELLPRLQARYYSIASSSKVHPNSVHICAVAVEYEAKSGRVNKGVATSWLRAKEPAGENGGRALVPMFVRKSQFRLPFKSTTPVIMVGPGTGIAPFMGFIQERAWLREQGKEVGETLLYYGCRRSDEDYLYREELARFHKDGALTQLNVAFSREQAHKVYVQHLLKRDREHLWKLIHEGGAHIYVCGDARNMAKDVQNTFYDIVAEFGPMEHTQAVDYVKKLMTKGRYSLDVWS

| % of CPR-dependent versus dithionite-dependent reduced P450-CO spectrum [%] | Substance |
| --- | --- |
| 41 | CYP3A4 Y430F mutant (from UniProt P08684 1-503) (enzyme) |
| 88 | human cytochrome P450 3A4, wild type, untreated (from UniProt P08684 1-503) (enzyme) |
| 22 | CYP3A4 Y430V mutant (from UniProt P08684 1-503) (enzyme) |
